This passage reports Kd results from article doi:10.1101/2021.11.12.467822 (bioRxiv, 2021).

Residue numbers refer to the chain shown, from its start. Names and notes keep the numbering of the source.

The target of test [1] is HOTag6-G10-Ub. As to the kind of experiment: NMR titration.
The target in test [2] is M1-linked Ub4 (UniProt P0CG48). Kind of test: NMR titration.
The target in test [3] is HOTag6-G10-Ub. As to the kind of experiment: fluorescence polarisation. A general note: In fluorescence polarisation assays a small probe gives low polarisation when free and higher when bound to something large.
The next test concerns the target ubiquitin (Ub) (UniProt P0CG48 1-76). Kind of test: fluorescence polarisation.
In test [4] the target is M1-linked Ub4 (UniProt P0CG48). As to the kind of experiment: fluorescence polarisation.

M1-linked Ub4, sequence (P0CG48 1-304): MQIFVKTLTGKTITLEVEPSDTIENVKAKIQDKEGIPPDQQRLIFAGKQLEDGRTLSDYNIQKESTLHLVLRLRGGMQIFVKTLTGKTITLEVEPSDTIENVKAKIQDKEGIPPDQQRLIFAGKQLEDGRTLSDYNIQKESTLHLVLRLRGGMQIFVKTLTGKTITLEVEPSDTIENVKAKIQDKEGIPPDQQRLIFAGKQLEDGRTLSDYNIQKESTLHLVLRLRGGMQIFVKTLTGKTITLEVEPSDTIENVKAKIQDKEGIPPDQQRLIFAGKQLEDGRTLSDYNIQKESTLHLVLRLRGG

B1: UBQLN2 450-624 (domain or fragment)
chain: RAMQALMQIQQGLQTLATEAPGLIPSFTPGVGVGVLGTAIGPVGPVTPIGPIGPIVPFTPIGPIGPIGPTGPAAPPGSTGSGGPTGPTVSSAAPSETTSPTSESGPNQQFIQQMVQALAGANAPQLPNPEVRFQQQLEQLNAMGFLNREANLQALIATGGDINAAIERLLGSQPS
A word on the Kd: it is the concentration at which binding is half-saturated. A high value points to weaker binding. Consider B1, for which the Kd worked out at 8.8 µM in the test with HOTag6-G10-Ub [1] and 12.8 µM with M1-linked Ub4 [2].

B2: fluorescently-labeled UBQLN2 450-624 (S624C, Alexa Fluor 488) (domain or fragment)
chain: B1 chain with S175C
modifications: Alexa Fluor 488 C5 Maleimide label (S624C mutation)
Turning to B2, the Kd with HOTag6-G10-Ub [3] is 7 µM; in the test with ubiquitin (Ub), 3.4 µM; in the test with M1-linked Ub4 [4], 5.1 µM.
